From patent US20210277125A1 (University of California, published 2021)
Residue numbers refer to the chain shown, from its start.

Legend:
[1] = molecular target: recombinant integrin αvβ1 (UniProt P06756 31-992; P05556 21-728); assay: ELISA: plate coated with antibody (2 µg/ml), recombinant integrin added, detected with 8B8-biotin and Streptavidin-HRP
Protocol: (§1) ELISA plates were coated with antibodies (2 μg/ml), washed, blocked with BSA, and then recombinant integrins were added at the indicated concentrations. After a brief incubation at RT, wells were washed and bound integrin detected with biotin conjugated anti-αv (8B8-biotin, 1 μg/ml) followed by Streptavidin-HRP. […] Antibodies were incubated at the indicated concentrations for 15 min at 4° C. and after washing detected with anti-mouse-PE.

[2] = molecular target: T1, recombinant integrin αvβ6 (UniProt P06756 31-992; P18564 22-707, limits assumed); assay: as above
Protocol: as §1

[3] = molecular target: recombinant integrin αvβ5 (UniProt P06756 31-992; P18084 24-719); assay: as above
Protocol: as §1

[4] = molecular target: recombinant integrin αvβ3 (UniProt P06756 31-992; P05106 27-718); assay: as above
Protocol: as §1

[5] = molecular target: T2, integrin αvβ8 on human ovarian carcinoma line OVCAR3 (human, UniProt P06756 31-1048; P26012 43-769); assay: flow cytometry on OVCAR3 cells, 15 min at 4 °C, detection with anti-mouse-PE, MFI against antibody concentration, KaleidaGraph fit
T2 construct: whole, on cells; also called OVCAR3 cells
Protocol: as §1

[6] = molecular target: T3, recombinant αvβ8 ectodomain (UniProt P06756 31-992; P26012 43-684, limits assumed); assay: kinetic exclusion assay (KinExA)
T3 construct: extracellular domain; the ELISA and the reporter assays say only 'recombinant αvβ8'; also called recombinant integrin αvβ8; immobilized αvβ8
Protocol: Affinity for the antibodies described in the Examples was determined using a kinetic exclusion assay format. KinExA (https://www.sapidyne.com). The affinity was calculated as follows: […]

[7] = molecular target: T3, recombinant αvβ8 ectodomain; assay: cell-based or functional assay
[8] = molecular target: T3, recombinant αvβ8 ectodomain; assay: cell-based or functional assay; remark: listed apart in the source
[9] = molecular target: T2, integrin αvβ8 on human ovarian …; assay: flow cytometry on OVCAR3 cells, 15 min at 4 °C, detection with anti-mouse (H+L)-PE, MFI against nM antibody
Protocol: (§2) All antibodies were produced in CHO cells. […] Primary […] were incubated at 4° C. for 15 min.

[10] = molecular target: T1, recombinant integrin αvβ6; assay: ELISA on coated integrin (1 µg/ml), antibody binding read as A450; antibody concentration not given
[11] = molecular target: T3, recombinant αvβ8 ectodomain; assay: sandwich ELISA: antibody coated at 2 µg/ml, recombinant integrin titrated, bound integrin detected with anti-αv 8B8-biotin and streptavidin-HRP
Protocol: ELISA plates were coated with antibodies (2 μg/ml), washed, blocked with BSA, and then recombinant integrins were added at the indicated concentrations. After a brief incubation at RT, wells were washed and bound integrin detected with biotin conjugated anti-αv (8B8-biotin, 1 μg/ml) followed by Streptavidin-HRP.

[12] = molecular target: T2, integrin αvβ8 on human ovarian …; assay: competition flow cytometry on OVCAR3 cells: fixed ADWA11 2.4 (chimeric, murine IgG2a CH2/CH3) with titrated fully human C6D4 F12, 15 min at 4 °C, ADWA11 2.4 detected with anti-mouse (H+L) PE
Protocol: as §2

T2 sequence (P06756 31-1048, chain 1 of 2): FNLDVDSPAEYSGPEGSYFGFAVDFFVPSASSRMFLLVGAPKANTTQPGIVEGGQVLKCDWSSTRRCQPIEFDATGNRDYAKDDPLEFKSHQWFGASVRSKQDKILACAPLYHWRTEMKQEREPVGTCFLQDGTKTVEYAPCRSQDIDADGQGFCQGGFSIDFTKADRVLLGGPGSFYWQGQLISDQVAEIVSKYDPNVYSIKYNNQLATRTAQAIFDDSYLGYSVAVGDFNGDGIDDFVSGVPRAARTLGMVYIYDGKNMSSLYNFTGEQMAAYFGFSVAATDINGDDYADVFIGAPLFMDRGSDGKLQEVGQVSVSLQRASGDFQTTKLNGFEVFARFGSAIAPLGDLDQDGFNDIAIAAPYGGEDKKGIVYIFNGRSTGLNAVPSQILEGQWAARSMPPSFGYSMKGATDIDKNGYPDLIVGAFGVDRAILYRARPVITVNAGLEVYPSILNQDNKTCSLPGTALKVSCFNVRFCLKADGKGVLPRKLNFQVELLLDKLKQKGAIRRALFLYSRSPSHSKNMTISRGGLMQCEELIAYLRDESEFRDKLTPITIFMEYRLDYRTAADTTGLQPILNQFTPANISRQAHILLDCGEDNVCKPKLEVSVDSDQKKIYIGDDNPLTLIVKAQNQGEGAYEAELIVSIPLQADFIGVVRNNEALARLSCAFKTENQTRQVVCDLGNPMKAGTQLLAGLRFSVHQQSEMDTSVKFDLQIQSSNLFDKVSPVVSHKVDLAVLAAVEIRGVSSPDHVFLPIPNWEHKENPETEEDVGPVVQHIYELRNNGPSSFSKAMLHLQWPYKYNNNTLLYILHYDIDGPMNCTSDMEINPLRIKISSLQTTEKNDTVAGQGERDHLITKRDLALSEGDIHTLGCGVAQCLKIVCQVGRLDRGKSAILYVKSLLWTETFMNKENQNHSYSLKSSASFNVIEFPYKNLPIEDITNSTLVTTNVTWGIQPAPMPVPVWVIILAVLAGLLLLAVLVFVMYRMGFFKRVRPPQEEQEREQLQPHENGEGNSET
T2 sequence (P26012 43-769, chain 2 of 2): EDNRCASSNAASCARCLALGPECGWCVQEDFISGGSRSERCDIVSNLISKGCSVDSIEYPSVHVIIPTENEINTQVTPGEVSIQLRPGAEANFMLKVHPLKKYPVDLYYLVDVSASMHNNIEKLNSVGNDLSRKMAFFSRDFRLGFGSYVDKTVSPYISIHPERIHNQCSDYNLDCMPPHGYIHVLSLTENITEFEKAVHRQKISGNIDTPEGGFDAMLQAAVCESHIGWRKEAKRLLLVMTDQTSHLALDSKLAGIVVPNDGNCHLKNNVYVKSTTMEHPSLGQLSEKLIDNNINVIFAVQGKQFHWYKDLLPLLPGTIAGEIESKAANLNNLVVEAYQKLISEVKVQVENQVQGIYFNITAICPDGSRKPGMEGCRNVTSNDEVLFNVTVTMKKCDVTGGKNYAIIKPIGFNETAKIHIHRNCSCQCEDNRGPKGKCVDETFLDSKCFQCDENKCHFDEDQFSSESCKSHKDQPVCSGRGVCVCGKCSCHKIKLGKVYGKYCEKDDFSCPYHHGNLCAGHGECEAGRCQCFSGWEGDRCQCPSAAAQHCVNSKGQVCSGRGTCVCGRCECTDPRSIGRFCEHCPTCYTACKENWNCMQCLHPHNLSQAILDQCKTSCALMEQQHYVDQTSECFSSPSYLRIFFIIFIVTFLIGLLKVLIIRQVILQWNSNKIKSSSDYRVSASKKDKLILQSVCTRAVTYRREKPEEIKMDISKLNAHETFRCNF
T1 sequence (P06756 31-992 limits assumed, chain 1 of 2): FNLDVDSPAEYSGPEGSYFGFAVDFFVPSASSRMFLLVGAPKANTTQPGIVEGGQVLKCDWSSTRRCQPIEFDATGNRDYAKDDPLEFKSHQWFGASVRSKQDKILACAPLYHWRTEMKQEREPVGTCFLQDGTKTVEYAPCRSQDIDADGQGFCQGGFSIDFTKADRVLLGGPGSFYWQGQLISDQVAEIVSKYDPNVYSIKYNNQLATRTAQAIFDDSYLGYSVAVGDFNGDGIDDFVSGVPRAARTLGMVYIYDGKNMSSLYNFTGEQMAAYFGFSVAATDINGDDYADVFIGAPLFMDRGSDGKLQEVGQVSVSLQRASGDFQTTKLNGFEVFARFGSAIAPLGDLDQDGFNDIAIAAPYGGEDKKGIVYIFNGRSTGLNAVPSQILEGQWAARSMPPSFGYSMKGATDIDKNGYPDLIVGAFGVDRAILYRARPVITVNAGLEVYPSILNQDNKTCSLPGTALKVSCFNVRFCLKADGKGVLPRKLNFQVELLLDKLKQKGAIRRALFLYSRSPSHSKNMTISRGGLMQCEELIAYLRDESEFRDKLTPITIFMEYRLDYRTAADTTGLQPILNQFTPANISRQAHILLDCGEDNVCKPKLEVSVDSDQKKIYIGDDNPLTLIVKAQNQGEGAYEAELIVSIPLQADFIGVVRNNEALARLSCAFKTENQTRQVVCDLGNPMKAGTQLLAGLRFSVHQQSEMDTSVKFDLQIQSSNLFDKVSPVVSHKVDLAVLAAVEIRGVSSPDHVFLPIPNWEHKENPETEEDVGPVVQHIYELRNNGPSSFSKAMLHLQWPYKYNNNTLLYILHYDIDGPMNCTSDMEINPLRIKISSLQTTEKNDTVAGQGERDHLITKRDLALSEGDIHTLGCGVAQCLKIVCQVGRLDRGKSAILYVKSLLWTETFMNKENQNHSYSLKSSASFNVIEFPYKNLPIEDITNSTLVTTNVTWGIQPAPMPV
T1 sequence (P18564 22-707 limits assumed, chain 2 of 2): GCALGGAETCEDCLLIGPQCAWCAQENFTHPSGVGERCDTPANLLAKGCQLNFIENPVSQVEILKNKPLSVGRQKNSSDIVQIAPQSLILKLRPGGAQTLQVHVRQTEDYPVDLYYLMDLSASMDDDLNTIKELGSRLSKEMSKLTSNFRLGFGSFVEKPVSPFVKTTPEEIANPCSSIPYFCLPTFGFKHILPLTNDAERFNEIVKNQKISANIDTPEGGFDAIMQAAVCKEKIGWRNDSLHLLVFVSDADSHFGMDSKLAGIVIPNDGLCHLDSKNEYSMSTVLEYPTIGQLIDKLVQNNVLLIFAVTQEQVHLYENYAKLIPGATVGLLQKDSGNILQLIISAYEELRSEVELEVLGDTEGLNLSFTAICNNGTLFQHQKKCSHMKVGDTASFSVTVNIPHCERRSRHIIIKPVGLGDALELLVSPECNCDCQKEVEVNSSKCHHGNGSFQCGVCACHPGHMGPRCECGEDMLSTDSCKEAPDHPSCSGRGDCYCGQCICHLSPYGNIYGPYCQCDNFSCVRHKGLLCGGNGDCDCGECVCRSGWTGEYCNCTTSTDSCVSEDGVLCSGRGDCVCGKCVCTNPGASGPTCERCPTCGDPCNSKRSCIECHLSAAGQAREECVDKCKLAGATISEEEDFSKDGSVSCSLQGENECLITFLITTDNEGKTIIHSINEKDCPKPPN
T3 sequence (P06756 31-992 limits assumed, chain 1 of 2): as the sequence (P06756 31-992 limits assumed, chain 1 of 2) above
T3 sequence (P26012 43-684 limits assumed, chain 2 of 2): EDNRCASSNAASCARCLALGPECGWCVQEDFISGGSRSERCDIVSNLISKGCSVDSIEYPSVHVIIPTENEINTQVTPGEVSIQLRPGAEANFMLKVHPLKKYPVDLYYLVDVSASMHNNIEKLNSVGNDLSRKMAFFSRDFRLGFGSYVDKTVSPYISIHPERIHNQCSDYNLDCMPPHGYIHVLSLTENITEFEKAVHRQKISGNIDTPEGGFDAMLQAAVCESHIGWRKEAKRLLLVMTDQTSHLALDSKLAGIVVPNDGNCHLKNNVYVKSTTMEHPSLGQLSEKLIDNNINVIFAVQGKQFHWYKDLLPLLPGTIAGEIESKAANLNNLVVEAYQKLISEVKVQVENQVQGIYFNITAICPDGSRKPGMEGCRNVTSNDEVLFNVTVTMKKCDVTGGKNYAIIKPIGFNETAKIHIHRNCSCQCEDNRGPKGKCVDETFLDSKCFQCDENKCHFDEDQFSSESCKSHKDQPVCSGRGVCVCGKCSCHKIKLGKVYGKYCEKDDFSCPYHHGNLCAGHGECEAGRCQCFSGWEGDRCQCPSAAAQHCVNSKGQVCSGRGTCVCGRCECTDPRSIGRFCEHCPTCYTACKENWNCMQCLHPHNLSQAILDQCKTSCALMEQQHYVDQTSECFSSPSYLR
recombinant integrin αvβ3, sequence (P06756 31-992 limits assumed, chain 1 of 2): as the sequence (P06756 31-992 limits assumed, chain 1 of 2) above
recombinant integrin αvβ3, sequence (P05106 27-718 limits assumed, chain 2 of 2): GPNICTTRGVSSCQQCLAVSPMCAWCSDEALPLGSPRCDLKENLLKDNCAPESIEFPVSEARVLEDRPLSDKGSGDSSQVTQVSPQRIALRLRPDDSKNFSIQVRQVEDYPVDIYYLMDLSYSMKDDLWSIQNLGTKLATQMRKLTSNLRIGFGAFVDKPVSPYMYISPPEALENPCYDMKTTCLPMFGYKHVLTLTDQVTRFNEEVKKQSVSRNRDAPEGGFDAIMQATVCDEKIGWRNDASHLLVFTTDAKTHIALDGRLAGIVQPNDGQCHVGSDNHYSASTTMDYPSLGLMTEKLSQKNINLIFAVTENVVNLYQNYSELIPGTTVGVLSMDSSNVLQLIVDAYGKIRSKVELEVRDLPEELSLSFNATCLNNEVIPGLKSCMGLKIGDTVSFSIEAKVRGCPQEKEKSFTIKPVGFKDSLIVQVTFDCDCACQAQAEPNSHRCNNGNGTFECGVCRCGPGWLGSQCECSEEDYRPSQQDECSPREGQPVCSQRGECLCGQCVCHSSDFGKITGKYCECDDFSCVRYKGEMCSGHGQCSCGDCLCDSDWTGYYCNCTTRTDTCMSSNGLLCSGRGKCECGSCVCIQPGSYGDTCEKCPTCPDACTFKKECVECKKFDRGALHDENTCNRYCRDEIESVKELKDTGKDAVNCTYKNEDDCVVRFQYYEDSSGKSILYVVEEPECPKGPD

B1: antibody with heavy chain with the C6 VH1 (D to K) mutation expressed with light chain D4 (antibody, V domains shown)
VH: QIQLVQSGAEVKKPGASVKISCKASGYTFTKYSMHWVRQAPGQGLEWVARINTETGEPTFADDFRGRFTVTLDTSTSTAYLEIRSLRSDDTAVYFCAIFYYGRDTWGQGTTLTVSS
VL: EIVMTQSPATLSVSPGERVTMSCKSSQSLLNSRSRKNYLAWYQQKPGQAPRLLIYWASTRESGVPARFSGSGSGTEFTLTISSVQSEDFAVYYCKQSYNLLSFGQGTVLEIKR
notes: Single mutant of HuC6D4
B1: no binding [1]; no binding [2]; no binding [3]. The binding result [4] was “no binding” and the Kd [5] was 2.5 nM.

B2: HuC6D4 (antibody, V domains shown)
VH: B1 VH with K31D
VL: B1 VL
notes: Whole antibody; also called Human C6D4; Humanized C6D4
B2 was tested, and the Kd [6] was 0.0821 nM and the Kd [5] was 4.9 nM.

B3: HuC6D4F12 (antibody, V domains shown)
VH: B1 VH
VL: B1 VL with N31H
notes: Whole antibody; also called HC6D4F12; HuC6D412
For B3, the Kd [6] was 0.00236 nM, the “IC50 of inhibition of TGF-β activation (TMLC reporter cells expressing TGF-β1/GARP on immobilized αvβ8)” value [7] was 0.75 µg/mL and the “inhibition of TGF-β activation (immobilized αvβ8 at 1 µg/ml and TGF-β1/GARP expressing TMLC reporter cells); fold against ADWA11 2.4” value [8] was roughly 77 fold. The Kd [9] was 1.4 nM, the binding result [10] was “no binding” and the Kd [5] was 3.1 nM.

B4: antibody with light chain D4 VL1 (N to H) mutation expressed with heavy chain C6 (antibody, V domains shown)
VH: B1 VH with K31D
VL: B1 VL with N31H
notes: Single mutant of HuC6D4
B4: no binding [1]; no binding [2]; no binding [3]. The binding result [4] was “no binding” and the Kd [5] was 4.7 nM.

B5: ADWA11 2.4 (chimeric version: humanized variable domains and CH1, murine IgG2a CH2/CH3) (antibody, V domains shown)
VH: EVQLVESGGGLVQPGGSLRLSCAASGFNIKDYYMNWVRQAPGKGLEWVGWIDPDQGNTIYEPKFQGRFTISADTSKNSAYLQMNSLRAEDTAVYYCARRLLMDYWGQGTLVTVSS
VL: DIQMTQSPSSLSASVGDRVTITCRSTKSLSHFNGNTYLFWYQQKPGKAPKRLIYYMSSLASGVPSRFSGSGSGTDFTLTISSLQPEDFATYYCQQSLEYPFTFGGGTKVEIKR
With B5 the “IC50 of inhibition of TGF-β activation (TMLC reporter cells expressing TGF-β1/GARP on immobilized αvβ8)” value [7] was 57.7 µg/mL and the Kd [9] was 26.3 nM.

B6: C6-TGFβ1RGD (antibody, V domains shown)
VH: B1 VH with K31D
VL: EIVMTQSPATLSVSPGERVTMSCKSSQSLLRRGDLATIHGNALAWYQQKPGQAPRLLIYWASTRESGVPARFSGSGSGTEFTLTISSVQSEDFAVYYCKQSYNLLSFGQGTVLEIKR
notes: also called C6-TGF-TGFβ1RGD
B6: binds [11].

B7: fully human C6D4 F12 (version of huC6D4F12 where CH1-3 were all human) (antibody, V domains shown)
VH: B1 VH
VL: B1 VL with N31H
B7 was tested, and the “IC50 (read off the curve)” value [12] was roughly 0.1 µg/mL.

B8: C6D4 IgG 2a (antibody, V domains shown)
VH: QIQLVQSGPELKKPGETVKISCKASGYTFTDYSMHWVKQAPGKGLKWVARINTETGEPTFADDFRGRFAVSLETSASTAYLQINNLKNEDTATYFCAIFYYGRDSWGQGTTLTVSS
VL: DIVMTQSPSSLAVSAGEKVTMSCKSSQSLLNSRTRKNYLAWYQQKPGQSPRLLIYWASTRESGVPDRFTGSGSGTDFTLTISSVQAEDLAVYYCKQSYNLLSFGAGTKLELKR
notes: IgG2a
B8 was tested, and the Kd [6] was 1.3 nM.
